Biological target: Ostreolysin A6 (Pleurotus ostreatus) (UniProt P83467)
Sequence of UniProt P83467 (P83467 whole entry): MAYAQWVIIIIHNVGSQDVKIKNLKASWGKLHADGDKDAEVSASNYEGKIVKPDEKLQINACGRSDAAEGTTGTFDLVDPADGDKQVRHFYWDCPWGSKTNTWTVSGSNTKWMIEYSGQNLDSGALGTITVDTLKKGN

Δ48EryB (erylysin B) (natural protein)
haemolysis of bovine erythrocytes, aegerolysin/MACPF-protein 12.5/1, 25 °C; against OlyA6/PlyB: 90 % lower
